Data: US20170334988A1 (WALTER AND ELIZA HALL INSTITUTE OF MEDICAL RESEARCH, published 2017)
Ends that are not written are not given here. * marks the point of attachment. Biotin = O=C1N[C@H]2[C@H](CS[C@H]2CCCCC(=O)*)N1

Key:
[1] = target: T1, Bak loop peptide 46EQEAEGVAAPADPEMVTLPLQPSS69 (human); assay: ITC at 25 °C, Ab 2.5 µM, peptide 50 µM, OneSites model
T1 construct: also called Bak peptide (residues E46 to S69 of human Bak)
T1 peptide: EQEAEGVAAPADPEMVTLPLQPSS
Protocol: (§1) FIG. 19: Isothermal Titration Microcalorimetry binding profile of 26/05-7D10-17-13 with loop peptide (⁴⁶[…]⁶⁹; SEQ ID NO: 21) at 25° C. A) Titration with Ab at 5 μM and peptide at 100 μM.
(§2) ITC experiments were performed using a MicroCal iTC 200 instrument from GE. Injections of 2.43 μl of peptide solution were added from a computer-controlled microsyringe at an interval of 3 min into the sample solution of antibody (cell volume=300 μl) with stirring at 1000 rpm. Titrations were done at pH 7.2 using […] phosphate-buffered saline. The experimental data were fitted to a theoretical titration curve using software supplied by Microcal.

[2] = target: T2, human Bak 15-mer peptide 1-15; assay: peptide ELISA, A405
T2 construct: member of m17
T2 peptide: Biotin-SGSGMASGQGPGPPRQECG
Protocol: (§3) Since most epitopes were linear, further mapping was performed using peptide arrays. Two arrays of overlapping 15-mer peptides (each offset by 10 residues) that collectively spanned the entire sequences of human and mouse Bak were designed. Biotinylated peptides were immobilized on streptavidin-coated plates and each antibody tested by ELISA.

[3] = target: T3, human Bak 15-mer peptide 31-45; assay: peptide ELISA, A405
T3 construct: member of m17
T3 peptide: Biotin-SGSGTEEVFRSYVFYRHQQ
Protocol: as §3

[4] = target: T4, human Bak 15-mer peptide 81-95; assay: peptide ELISA, A405
T4 construct: member of m17
T4 peptide: Biotin-SGSGIGDDINRRYDSEFQT
Protocol: as §3

[5] = target: T5, human Bak 15-mer peptide 51-65; assay: peptide ELISA, A405
T5 construct: member of m17
T5 peptide: Biotin-SGSGGVAAPADPEMVTLPL
Protocol: as §3

[6] = target: T6, mouse Bak 15-mer peptide 21-35; assay: peptide ELISA, A405
T6 construct: member of m18
T6 peptide: Biotin-SGSGSEQQVAQDTEEVFRS
Protocol: as §3

[7] = target: T7, mouse Bak 15-mer peptide 31-45; assay: peptide ELISA, A405
T7 construct: member of m18
T7 peptide: Biotin-SGSGEVFRSYVFYLHQQEQ
Protocol: as §3

[8] = target: T8, mouse Bak 15-mer peptide 71-85; assay: peptide ELISA, A405
T8 construct: member of m18
T8 peptide: Biotin-SGSGQVGRQLALIGDDINR
Protocol: as §3

[9] = target: T9, mouse Bak 15-mer peptide 41-55; assay: peptide ELISA, A405
T9 construct: member of m18
T9 peptide: Biotin-SGSGHQQEQETQGAAAPAN
Protocol: as §3

[10] = target: T10, human Bak 15-mer peptide 21-35; assay: peptide ELISA, A405
T10 construct: member of m17
T10 peptide: Biotin-SGSGSASEEQVAQDTEEVF
Protocol: as §3

[11] = target: T11, human Bak 15-mer peptide for residues 11-25 (human, UniProt Q16611 11-25); assay: peptide ELISA, A405
T11 construct: range 11-25
T11 peptide: Biotin-SGSGRQECGEPALPSASEE
Protocol: as §3

[12] = target: T12, human Bak 15-mer peptide 41-55; assay: peptide ELISA, A405
T12 construct: member of m17
T12 peptide: Biotin-SGSGYRHQQEQEAEGVAAP
Protocol: as §3

[13] = target: T13, mouse Bak 15-mer peptide 81-95; assay: peptide ELISA, A405
T13 construct: member of m18
T13 peptide: Biotin-SGSGDDINRRYDTEFQNLL
Protocol: as §3

[14] = target: T1, Bak loop peptide …; assay: ITC at 25 °C, Ab 5 µM, peptide 100 µM, OneSites model
Protocol: as §1, §2

[15] = target: T1, Bak loop peptide …; assay: ITC at 25° C., Ab at 2.5 µM and peptide at 50 µM
Protocol: as §1, §2

human Bak G51C = target: T14, human Bak G51C (human, UniProt Q16611 2-211); assay: immunoprecipitation from membranes incubated with or without tBid, western blot
T14 construct: whole, on cells; In membrane fractions
T14 sequence (looked up): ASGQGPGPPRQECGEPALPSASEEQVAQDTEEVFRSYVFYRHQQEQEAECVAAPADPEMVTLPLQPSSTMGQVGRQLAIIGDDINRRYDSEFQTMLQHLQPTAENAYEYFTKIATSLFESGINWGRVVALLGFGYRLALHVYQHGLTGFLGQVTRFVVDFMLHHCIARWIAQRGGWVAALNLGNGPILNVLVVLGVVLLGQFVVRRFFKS
Protocol: FIG. 4: Ability of antibodies to recognize Bak in different conformations. Membrane fractions from cells expressing Bak (as indicated) were incubated (30 min, 30° C.) with (+) or without (−) Bid, solubilized with digitonin, and incubated with the Bak antibodies shown. Bak in immunoprecipitates and whole cell lysate controls was detected by western blot using the 4B5 antibody. Data are representative of at least two independent experiments ND, not done.
Following activation of Bak in membrane fractions, samples were solubilized by incubation with 1% digitonin on ice for at least 30 min. […] After removing beads by repeated washes in Onyx buffer, lysates were incubated with constant agitation for 2 h at 4° C. with 4 ug/ml anti-Bak antibody, followed by incubation for 1 h at 4° C. with additional pre-washed Sepharose G beads. Immune complexes were isolated by centrifugation (13000 rpm, 2 min, 4° C.), washed 4 times with Onyx buffer, resuspended in sample buffer containing 2-mercaptoethanol and analyzed by western blotting.

DTEEVFRS = target: T15, DTEEVFRS; assay: peptide ELISA, A405
T15 construct: member of m19; also called hBak 8-mer 30-37
T15 peptide: Biotin-SGSGDTEEVFRS

VFRSYVFY = target: T16, VFRSYVFY; assay: peptide ELISA, A405
T16 construct: member of m19; also called hBak 8-mer 34-41
T16 peptide: Biotin-SGSGVFRSYVFY

SYVFYRHQ = target: T17, SYVFYRHQ; assay: peptide ELISA, A405
T17 construct: member of m19; also called hBak 8-mer 37-44
T17 peptide: Biotin-SGSGSYVFYRHQ

SEEQVAQD = target: T18, SEEQVAQD; assay: peptide ELISA, A405
T18 construct: member of m19; also called hBak 8-mer 23-30
T18 peptide: Biotin-SGSGSEEQVAQD

QVAQDTEE = target: T19, QVAQDTEE; assay: peptide ELISA, A405
T19 construct: member of m19; also called hBak 8-mer 26-33
T19 peptide: Biotin-SGSGQVAQDTEE

GVAAPADP = target: T20, GVAAPADP; assay: peptide ELISA, A405
T20 construct: member of m19; also called hBak 8-mer 51-58
T20 peptide: Biotin-SGSGGVAAPADP

FRSYVFYR = target: T21, FRSYVFYR; assay: peptide ELISA, A405
T21 construct: member of m19; also called hBak 8-mer 35-42
T21 peptide: Biotin-SGSGFRSYVFYR

VAAPADPE = target: T22, VAAPADPE; assay: peptide ELISA, A405
T22 construct: member of m19; also called hBak 8-mer 52-59
T22 peptide: Biotin-SGSGVAAPADPE

EQVAQDTE = target: T23, EQVAQDTE; assay: peptide ELISA, A405
T23 construct: member of m19; also called hBak 8-mer 25-32
T23 peptide: Biotin-SGSGEQVAQDTE

EGVAAPAD = target: T24, EGVAAPAD; assay: peptide ELISA, A405
T24 construct: member of m19; also called hBak 8-mer 50-57
T24 peptide: Biotin-SGSGEGVAAPAD

QDTEEVFR = target: T25, QDTEEVFR; assay: peptide ELISA, A405
T25 construct: member of m19; also called hBak 8-mer 29-36
T25 peptide: Biotin-SGSGQDTEEVFR

TEEVFRSY = target: T26, TEEVFRSY; assay: peptide ELISA, A405
T26 construct: member of m19; also called hBak 8-mer 31-38
T26 peptide: Biotin-SGSGTEEVFRSY

EAEGVAAP = target: T27, EAEGVAAP; assay: peptide ELISA, A405
T27 construct: member of m19; also called hBak 8-mer 48-55
T27 peptide: Biotin-SGSGEAEGVAAP

EVFRSYVF = target: T28, EVFRSYVF; assay: peptide ELISA, A405
T28 construct: member of m19; also called hBak 8-mer 33-40
T28 peptide: Biotin-SGSGEVFRSYVF

EEVFRSYV = target: T29, EEVFRSYV; assay: peptide ELISA, A405
T29 construct: member of m19; also called hBak 8-mer 32-39
T29 peptide: Biotin-SGSGEEVFRSYV

EEQVAQDT = target: T30, EEQVAQDT; assay: peptide ELISA, A405
T30 construct: member of m19; also called hBak 8-mer 24-31
T30 peptide: Biotin-SGSGEEQVAQDT

AQDTEEVF = target: T31, AQDTEEVF; assay: peptide ELISA, A405
T31 construct: member of m19; also called hBak 8-mer 28-35
T31 peptide: Biotin-SGSGAQDTEEVF

[16] = target: T32, human Bak 8-mer peptide YVFYRHQQ (residues 38-45) (human); assay: peptide ELISA, A405
T32 peptide: Biotin-SGSGYVFYRHQQ

AEGVAAPA = target: T33, AEGVAAPA; assay: peptide ELISA, A405
T33 construct: member of m19; also called hBak 8-mer 49-56
T33 peptide: Biotin-SGSGAEGVAAPA

VAQDTEEV = target: T34, VAQDTEEV; assay: peptide ELISA, A405
T34 construct: member of m19; also called hBak 8-mer 27-34
T34 peptide: Biotin-SGSGVAQDTEEV

RSYVFYRH = target: T35, RSYVFYRH; assay: peptide ELISA, A405
T35 construct: member of m19; also called hBak 8-mer 36-43
T35 peptide: Biotin-SGSGRSYVFYRH

[17] = target: T1, Bak loop peptide …; assay: SPR, BIAcore 3000
[18] = target: T36, human BakΔC25 protein (residues 1-186 of SwissProt Accession No. Q16611.1) (human, UniProt Q16611 1-186); assay: SPR, BIAcore 3000
T36 construct: also called humanAC25 Bak protein; hBakAC
T36 sequence: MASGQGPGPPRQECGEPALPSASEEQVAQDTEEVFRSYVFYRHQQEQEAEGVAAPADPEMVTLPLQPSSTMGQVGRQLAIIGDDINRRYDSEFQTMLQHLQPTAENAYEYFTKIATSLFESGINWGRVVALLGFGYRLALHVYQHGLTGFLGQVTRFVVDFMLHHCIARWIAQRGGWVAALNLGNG

[19] = target: T1, Bak loop peptide …; assay: ITC at 25° C., Ab at 5 µM and peptide at 100 µM
Protocol: as §1, §2

B1: 26/05-7D10-17-13 antibody (antibody, V domains shown)
VH: EVELVESGGDLVQPGRSLKLSCAASGFTFSNLAMAWVRQTPTKGLEWVASISPAGITTYYRDSVKGRFTISRDNARNTQYLQMDSLRSEDTATYYCARHTGKSSFFDYWGQGVMVTVSS
VL: DVQMTQSPSYLAASPGESVSISCKATENINTYLAWYQAKPGKTTKLLLYSGSTLQSGTPSRFSGSGSGTDFTLTISSLEPEDFAVYYCQQHNEYPLTFGSGTKLEIK
notes: Rat IgG monoclonal antibody from hybridoma SW1 (ECACC 15041601), WEHI monoclonal antibody facility; also called 26/05-7D10-17-13 MAb; 26/05-7D 10-17-13 anti-Bak antibody
[1]
  Ka: 2.26e+08 M⁻¹
  ΔH: -29.3 kcal/mol
  ΔS: -60 cal/mol/deg
[2]
  binding result: no binding
[3]
  binding result: no binding
[4]
  binding result: no binding
[5]
  binding result: binds
[6]
  binding result: no binding
[7]
  binding result: no binding
[8]
  binding result: no binding
[9]
  binding result: binds
[10]
  binding result: no binding
[11]
  binding result: no binding
[12]
  binding result: binds
[13]
  binding result: no binding
[14]
  Ka: 2.34e+08 M⁻¹
  ΔH: -23.1 kcal/mol
  ΔS: -39.2 cal/mol/deg
[15]
  Kd: < 4 nM
Human Bak G51C
  binding result: no binding
DTEEVFRS
  binding result: no binding
VFRSYVFY
  binding result: no binding
SYVFYRHQ
  binding result: no binding
SEEQVAQD
  binding result: no binding
QVAQDTEE
  binding result: no binding
GVAAPADP
  binding result: binds
FRSYVFYR
  binding result: no binding
VAAPADPE
  binding result: binds
EQVAQDTE
  binding result: no binding
EGVAAPAD
  binding result: binds
QDTEEVFR
  binding result: no binding
TEEVFRSY
  binding result: no binding
EAEGVAAP
  binding result: binds
EVFRSYVF
  binding result: no binding
EEVFRSYV
  binding result: no binding
EEQVAQDT
  binding result: no binding
AQDTEEVF
  binding result: no binding
[16]
  binding result: no binding
AEGVAAPA
  binding result: binds
VAQDTEEV
  binding result: no binding
RSYVFYRH
  binding result: no binding
[17]
  Kd: 2.9 nM
[18]
  Kd: 0.466 nM
[19]
  Kd: < 4.3 nM
